# Measurements: article PMC7116876, “Mechanistic Insights into Regulation of the ALC1 Remodeler by the Nucleosome Acidic Patch” (Cell reports, 2020)
# Key:
# [1] = system: individual WT/WT nucleosomes with 3 bp of linker DNA; assay: smFRET remodeling, pause duration; assay type: biochemical, Xenopus laevis histones
# Source text: (§1) The DNA constructs used in the nucleosome assembly for single-molecule and ensemble remodeling studies comprised the Widom 601 nucleosome positioning sequence ([Lowary and Widom, 1998]) as well as either 3 bp or 12 bp of linker DNA on one side and 78 bp on the other side (for the single-molecule remodeling construct) or 63 bp of linker DNA on one side and no linker DNA on the other side (for the ensemble remodeling construct). All constructs were 5’-labeled with Cy5 on the short linker end. The constructs for single-molecule experiments additionally featured a biotin on the long linker end. […] The DNA constructs for the assembly of nucleosomes used in fluorescence anisotropy experiments and ATPase assays comprised the Widom 601 positioning sequence without additional linker DNA (for the fluorescence anisotropy construct) or 63 bp of linker DNA on one side and no linker DNA on the other side (for the ATPase assay construct). […]
# Using the DNA constructs for single-molecule FRET described above, we first generated oriented hexasomes with H2A-Cy3 on the short linker side using a salt dialysis method as described previously ([Dyer et al., 2004]; [Levendosky et al., 2016]; [Sabantsev et al., 2019]). […] Data were analyzed using custom scripts for the Fiji distribution of ImageJ ([Schindelin et al., 2012]; [Schneider et al., 2012]), IDL, and MATLAB ([Sabantsev et al., 2019]). […]
# [2] = system: ALC1 ATPase with 145 bp dsDNA; assay: DNA-stimulated ATPase activity; assay type: biochemical, Homo sapiens ALC1; details: 1 μM ALC1, 20 μM or 50 μM 145 bp dsDNA, 1 mM ATP; N = 3 independent experiments
# Method: ATPase activity was measured using a coupled assay that measures ADP production as described previously, ([Willhoft et al., 2016]). Final concentrations of 0.45 mM NADH, 1.0 mM phosphoenolpyruvate, 54 U/ml pyruvate kinase (Sigma), and 78 U/ml lactic dehydrogenase (Sigma) were used. For measurements of nucleosome-stimulated ATPase activity, reactions contained 20 μM ALC1,2 μM WT/WT nucleosomes, and 1 mM ATP in a volume of 30 μl. Fluorescence was monitored (excitation wavelength: 340 nm; emission wavelength: 430 nm) at 37°C using a CLARIOstar microplate reader (BMG Labtech) and black low-volume 384-well microplates (Corning). For measurements of DNA-stimulated ATPase activity, the absorbance was monitored at 340 nm for reactions containing a final of 1 μM ALC1 and either 20 μM or 50 μM 145 bp nucleosomal double-stranded (ds) DNA in 100 μl. Reaction rates were determined using mean linear slopes. […]
# (§2) For fluorescence anisotropy binding experiments, the reported values represent the mean ± SEM from 3 independent experiments. […] For ensemble nucleosome remodeling time courses, each experimental condition was recorded in 3 independent experiments, and representative remodeling time courses are shown. […]
# [3] = system: ALC1-catalyzed remodeling of WT/WT nucleosomes; assay: Ensemble FRET nucleosome remodeling, WT/WT nucleosomes; assay type: biochemical, Homo sapiens ALC1; Xenopus laevis histones; details: WT/WT nucleosomes 10 nM, various remodeler concentrations, Michaelis-Menten
# Source text: (§3) cDNAs for ALC1 and PARP1 were of Homo sapiens origin. Histone proteins (recombinantly expressed in E. coli) were of Xenopus laevis origin. Cell lines as well as growth conditions are described in the Method Details.
# (§4) Oligonucleotides used in this study were ordered from IDT (see Table S3). The ALC1^fl (16-879) construct contains the human ALC1 sequence and a 6xHis-tag, as previously published ([Lehmann et al., 2017]). All point mutations were generated by PCR-based site-directed mutagenesis. The plasmid for human PARP1 (1-1014) with an N-terminal 6xHis-tag was a kind gift from John M. Pascal ([Langelier et al., 2017]).
# as §1, with “construct).” for “construct). All constructs were 5’-labeled with Cy5 on the short linker end. The constructs for single-molecule experiments additionally featured a biotin on the long linker end.”
# Nucleosome ensemble remodeling kinetics were measured by monitoring the Cy5 (under 620 nm and 520 nm excitation) and Cy3 (under 520 nm excitation) fluorescence emission signals of a solution of FRET-labeled nucleosomes using a Spark (Tecan) or CLARIOstar (BMG Labtech) multimode microplate reader. […] Reaction kinetics were analyzed assuming a standard Michaelis-Menten mechanism.
# as §2
# [4] = system: ALC1-catalyzed remodeling of APM/APM nucleosomes; assay: Ensemble FRET nucleosome remodeling, APM/APM versus WT/WT nucleosomes; assay type: biochemical, Homo sapiens ALC1; Xenopus laevis histones; details: 20 μM remodeler, 10 nM nucleosomes, 1.5 mM ATP; n = 3 independent experiments
# Source text: as §3, §4
# as §1, with “construct).” for “construct). All constructs were 5’-labeled with Cy5 on the short linker end. The constructs for single-molecule experiments additionally featured a biotin on the long linker end.”
# [5] = system: ALC1 ATPase with WT/WT nucleosomes; assay: Nucleosome-stimulated ATPase activity; assay type: biochemical, Homo sapiens ALC1; Xenopus laevis histones
# Method: ATPase activity was measured using a coupled assay that measures ADP production as described previously, ([Willhoft et al., 2016]). Final concentrations of 0.45 mM NADH, 1.0 mM phosphoenolpyruvate, 54 U/ml pyruvate kinase (Sigma), and 78 U/ml lactic dehydrogenase (Sigma) were used. For measurements of nucleosome-stimulated ATPase activity, reactions contained 20 μM ALC1,2 μM WT/WT nucleosomes, and 1 mM ATP in a volume of 30 μl. Fluorescence was monitored (excitation wavelength: 340 nm; emission wavelength: 430 nm) at 37°C using a CLARIOstar microplate reader (BMG Labtech) and black low-volume 384-well microplates (Corning). For measurements of DNA-stimulated ATPase activity, the absorbance was monitored at 340 nm for reactions containing a final of 1 μM ALC1 and either 20 μM or 50 μM 145 bp nucleosomal double-stranded (ds) DNA in 100 μl. Reaction rates were determined using mean linear slopes. For measurements of nucleosome-stimulated ATPase activity, we estimated Vmax for both ALC1^fl R860W and ALC1^fl R611A/S612A/R860W using the Michaelis-Menten equation and the Km values that we obtained from nucleosome sliding kinetics in Figure 3B.
# For fluorescence anisotropy binding experiments, the reported values represent the mean ± SEM from 3 independent experiments. For ATPase activity measurements, the reported values represent the mean ± standard deviation from 3 independent experiments. For ensemble nucleosome remodeling time courses, each experimental condition was recorded in 3 independent experiments, and representative remodeling time courses are shown. Relative remodeling rates derived from these curves represent the mean ± standard deviation from 3 independent experiments. For smFRET experiments, values are reported as mean ± SEM from several experiments as specified in the corresponding figure legends. For association kinetics from live-cell imaging, error bars represent SEM from N ≥ 131 traces from 3 independent experiments.
molecule,measurement,setting,value
"ALC1^fl R611A/S612A/R860W: ALC1^RLS Arg anchor (R611) and adjacent residue (S612) mutated to alanines (protein, left off: His6, end not stated, state not stated, ALC1^RLS Arg anchor (R611) and adjacent residue (S612) mutated to alanines) FLLRLHTEGRAEAARVQEQDLRQWGLTGIHLRSYQLEGVNWLAQRFHCQNGCILGDEMGLGKTCQTIALFIYLAGRLNDEGPFLILCPLSVLSNWKEEMQRFAPGLSCVTYAGDKEERACLQQDLKQESRFHVLLTTYEICLKDASFLKSFPWSVLVVDEAHRLKNQSSLLHKTLSEFSVVFSLLLTGTPIQNSLQELYSLLSFVEPDLFSKEEVGDFIQRYQDIEKESESASELHKLLQPFLLRRVKAEVATELPKKTEVVIYHGMSALQKKYYKAILMKDLDAFENETAKKVKLQNILSQLRKCVDHPYLFDGVEPEPFEVGDHLTEASGKLHLLDKLLAFLYSGGHRVLLFSQMTQMLDILQDYMDYRGYSYERVDGSVRGEERHLAIKNFGQQPIFVFLLSTRAGGVGMNLTAADTVIFVDSDFNPQNDLQAAARAHRIGQNKSVKVIRLIGRDTVEEIVYRKAASKLQLTNMIIEGGHFTLGAQKPAADADLQLSEILKFGLDKLLASEGSTMDEIDLESILGETKDGQWVSDALPAAEGGSRDQEEGKNHMYLFEGKDYSKEPSKEDRKSFEQLVNLQKTLLEKASQEGAALRNKGSVLIPGLVEGSTKRKRVLSPEELEDRQKKRQEAAAKRRRLIEEKKRQKEEAEHKKKMAWWESNNYQSFCLPSEESEPEDLENGEESSAELDYQDPDATSLKYVSGDVTHPQAGAEDALIVHCVDDSGHWGRGGLFTALEKRSAEPRKIYELAGKMKDLSLGGVLLFPVDDKESRNKGQDLLALIVAQHRDRSNVLSGIKMAALEEGLKKIFLAAKKKKASVHLPRIGHATKGFNWYGTERLIWKHLAARGIPTYIYYFPRSK",average binding time relative to average pause duration (pause fold shorter),[1]; remodeler concentration 20 μM,2.8 fold
same,increase in observed pause duration on lowering remodeler concentration by a factor of 4,[1]; remodeler concentration lowered 4-fold,30%
same,"DNA-stimulated ATPase activity, ALC1^fl R860W versus ALC1^fl R611A/S612A/R860W",[2],essentially identical DNA-stimulated ATPase activity
same,fold decrease of maximum rate for remodeling versus ALC1^fl R860W,[3],~ 6.4 fold
same,fold increase of Michaelis constant for remodeling versus ALC1^fl R860W,[3],~ 5.3 fold
same,"fold decrease in remodeling rate, APM/APM versus WT/WT nucleosomes",[4],~ 3.2 fold
same,fold reduction of ATPase rate versus ALC1^fl R860W,"[5]; 20 μM ALC1, 2 μM WT/WT nucleosomes, 1 mM ATP, 37°C, n = 3 independent experiments",~ 2.5 fold
same,"fold reduction of ATPase rate versus ALC1^fl R860W, saturating conditions (Vmax)","[5]; under saturating conditions, Vmax estimated with Michaelis-Menten equation and Km values from nucleosome sliding kinetics",~ 2 fold
